Experimental data reported in article PMC4873976, “Structural basis for haem piracy from host haemopexin by Haemophilus influenzae” (Nature Communications, 2016).

T1: Haemopexin (Oryctolagus cuniculus, UniProt P20058)
T1 chain: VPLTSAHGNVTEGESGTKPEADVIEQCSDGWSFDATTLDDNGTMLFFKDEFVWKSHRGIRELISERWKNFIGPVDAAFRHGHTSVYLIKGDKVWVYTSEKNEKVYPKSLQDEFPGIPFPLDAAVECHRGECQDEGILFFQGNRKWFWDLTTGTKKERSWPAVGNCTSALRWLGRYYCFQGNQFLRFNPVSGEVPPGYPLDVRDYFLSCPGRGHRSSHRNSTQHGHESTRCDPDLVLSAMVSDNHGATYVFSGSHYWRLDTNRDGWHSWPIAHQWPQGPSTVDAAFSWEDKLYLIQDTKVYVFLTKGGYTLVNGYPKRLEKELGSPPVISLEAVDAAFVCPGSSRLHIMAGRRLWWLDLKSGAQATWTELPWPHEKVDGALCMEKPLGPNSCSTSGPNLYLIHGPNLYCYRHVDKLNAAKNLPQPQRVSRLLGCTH

T2: HxuA, cysteine-less variant (cysteines 855 and 861 replaced by serines; referred to as HxuA throughout) (Haemophilus influenzae, UniProt P44602 22-905, cysteine at position 855 replaced by serine | cysteine at position 861 replaced …)
T2 construct: HxuA, haem-haemopexin utilisation protein A (TpsA cargo protein) of Haemophilus influenzae, called full-length, 884 residues, Ser1 to Gln884; Measured mass 96,467.6094 (theoretical 96,469.6926); also called HxuAdm; dm variant; source: E. coli BL21, pBAD24 derivative with the hxuCBA operon; purified from the culture supernatant (ammonium sulfate, SEC, monoQ)
T2 sequence: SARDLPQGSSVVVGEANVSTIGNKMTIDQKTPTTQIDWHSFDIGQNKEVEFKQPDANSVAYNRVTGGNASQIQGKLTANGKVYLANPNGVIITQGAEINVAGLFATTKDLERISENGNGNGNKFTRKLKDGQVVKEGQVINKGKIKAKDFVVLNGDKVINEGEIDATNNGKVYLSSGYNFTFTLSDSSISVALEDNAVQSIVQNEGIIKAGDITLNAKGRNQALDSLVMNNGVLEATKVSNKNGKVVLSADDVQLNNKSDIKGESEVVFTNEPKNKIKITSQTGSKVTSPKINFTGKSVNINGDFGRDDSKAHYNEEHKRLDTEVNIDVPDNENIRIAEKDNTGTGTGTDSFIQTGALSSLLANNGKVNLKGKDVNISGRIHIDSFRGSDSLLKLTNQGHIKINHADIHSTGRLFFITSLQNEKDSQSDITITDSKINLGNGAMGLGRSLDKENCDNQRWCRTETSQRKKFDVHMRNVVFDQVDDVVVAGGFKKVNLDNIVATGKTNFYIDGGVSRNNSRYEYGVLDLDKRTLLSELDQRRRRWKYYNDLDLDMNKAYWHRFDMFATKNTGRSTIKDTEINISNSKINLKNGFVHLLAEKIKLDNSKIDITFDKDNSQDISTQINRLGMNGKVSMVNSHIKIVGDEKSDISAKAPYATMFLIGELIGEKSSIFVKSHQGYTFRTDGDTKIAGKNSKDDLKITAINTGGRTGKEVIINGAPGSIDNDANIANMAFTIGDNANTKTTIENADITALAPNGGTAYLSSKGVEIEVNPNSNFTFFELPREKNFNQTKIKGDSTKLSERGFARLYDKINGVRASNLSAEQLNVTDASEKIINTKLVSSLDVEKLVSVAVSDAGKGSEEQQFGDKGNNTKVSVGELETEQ

T3: cysteine-less variant of HxuA^Asp726Ala (Haemophilus influenzae, UniProt P44602 22-905, Asp726Ala | cysteine at position 855 replaced by serine | cysteine at position …)
T3 construct: HxuA of Haemophilus influenzae, as m1 with Asp726Ala; also called dm variant of HxuA^Asp726Ala; source: E. coli, purified from the supernatant (same protocol as HxuA)
T3 sequence: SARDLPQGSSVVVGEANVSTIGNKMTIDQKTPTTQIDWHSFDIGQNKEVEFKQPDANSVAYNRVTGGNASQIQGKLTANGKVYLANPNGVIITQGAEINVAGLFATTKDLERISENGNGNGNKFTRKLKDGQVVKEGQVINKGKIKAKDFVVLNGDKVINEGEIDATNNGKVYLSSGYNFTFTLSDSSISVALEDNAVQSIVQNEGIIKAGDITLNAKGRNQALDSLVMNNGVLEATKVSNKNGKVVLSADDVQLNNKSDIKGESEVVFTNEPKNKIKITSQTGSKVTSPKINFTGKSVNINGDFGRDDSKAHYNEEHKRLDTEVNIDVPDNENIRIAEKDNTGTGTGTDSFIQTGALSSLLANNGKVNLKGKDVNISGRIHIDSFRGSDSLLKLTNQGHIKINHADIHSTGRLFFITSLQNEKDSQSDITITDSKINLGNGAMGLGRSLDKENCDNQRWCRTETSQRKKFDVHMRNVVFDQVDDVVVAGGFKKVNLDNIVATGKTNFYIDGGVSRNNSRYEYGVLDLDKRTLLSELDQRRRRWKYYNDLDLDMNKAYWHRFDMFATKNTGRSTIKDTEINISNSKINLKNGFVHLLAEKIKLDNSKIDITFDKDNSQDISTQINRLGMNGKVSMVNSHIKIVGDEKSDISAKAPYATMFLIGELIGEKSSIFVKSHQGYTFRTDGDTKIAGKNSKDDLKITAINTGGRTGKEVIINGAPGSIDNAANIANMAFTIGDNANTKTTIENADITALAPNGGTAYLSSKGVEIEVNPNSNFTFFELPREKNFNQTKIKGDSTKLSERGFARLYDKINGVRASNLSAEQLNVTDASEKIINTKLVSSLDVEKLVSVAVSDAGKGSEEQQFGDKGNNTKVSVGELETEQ


Tests used:
Haemopexin = biological target: T1, Haemopexin; experiment: ITC; given as Ka
[1] = biological target: T2, HxuA, cysteine-less variant (cysteines …); experiment: ITC; haemopexin or its fragments (~100 μM) in the syringe, HxuA (~10 μM) in the cell; 20 mM Na-phosphate pH 7.0, 25 °C; single-site model; apparent Ka; settings: both partners purified
[2] = biological target: T3, cysteine-less variant of HxuA^Asp726Ala; experiment: as above; settings: both partners purified

Row | Binder | Kd (Haemopexin) [nM] | Ka [1] [M⁻¹] | dH [1] [kJ/mol] | Ka [2] [M⁻¹] | dH [2] [kJ/mol]
1 | HxuA (protein) STQGLPQQGLPQQGLPQEDKVVVGQATFDKTIADKMTINQTSDKVQINWHSFDIGQNKEVEFKQPSENSVAYNRVTGGNASQIQGKLTANGKVYLANPNGVIITKGAEINVAGLLATTKDLEQISENSNSYQFTRKTKDRQVVKEGQVINEGEIKAKDFVVLNGDEVINKGNINVEKNSTINGKVYLSSGYNFTFTLSDSGISVALEDNTVRGIVQNEGSIKAGEITLSAKGRKEALDSLVMNNGVLEATKVSNRNGKVVLSADNVQLNNESNIKGEIVNFGTEVTSNEDKKLKITSKTGSKVTSPKINFKGKSVNINGNFGRENSGTHYNEERKTLNTEVNIDVPGAENIRIADDKDNTETDSFIQTEALSSLLANNGKVNLKGNDVNISGNINIDSFRGTDSLLKLTNQGHINIDHADINSKGRLFVVTSLQNDVDFKSNITITDSKINLGNGAMGLGRSVNEDDYATRWKRAEKSQRKKFNVDMRNVVFNQVDEVILAGGFEKVNLDKIVATGQTNFYIDGGVSRNNSRYEYGVLDLDYRTQLSELEQGRRRWRYYRDLDLDMNKAYLYRFDLFAKNNSGRSTIKGTEINISNSNINLKNGFVHLLAENIKLDNSKVDITFDKDNSQDTLAQTNRLGMNGKVSMINSHIKIVGDEKEGISPTGTYATMFLIGELIGEKSSIFVKSHQGYTFKTDGDTKIAGKNSKEDLKITAINTGGRAAEEVLINGALGSADNDANIANMAFTIGDSANTKTTIENADITALAPNGGTAYLSSKDVEIEVKPNSNFTFFELPREKNLNQTKINGASTKLSERGFARLYDKINGVRASNLSAEQLNVTDASEKIINTKLVSSLDVEKLVSVAVCDAGNGCEEQQFGDKGNNTKVSVGELEAEQ | < 1 | – | – | – | –
2 | rabbit haem-haemopexin (natural protein, also called He-Hpx; source: purified from rabbit serum (Biosera), haem-loaded) VPLTSAHGNVTEGESGTKPEADVIEQCSDGWSFDATTLDDNGTMLFFKDEFVWKSHRGIRELISERWKNFIGPVDAAFRHGHTSVYLIKGDKVWVYTSEKNEKVYPKSLQDEFPGIPFPLDAAVECHRGECQDEGILFFQGNRKWFWDLTTGTKKERSWPAVGNCTSALRWLGRYYCFQGNQFLRFNPVSGEVPPGYPLDVRDYFLSCPGRGHRSSHRNSTQHGHESTRCDPDLVLSAMVSDNHGATYVFSGSHYWRLDTNRDGWHSWPIAHQWPQGPSTVDAAFSWEDKLYLIQDTKVYVFLTKGGYTLVNGYPKRLEKELGSPPVISLEAVDAAFVCPGSSRLHIMAGRRLWWLDLKSGAQATWTELPWPHEKVDGALCMEKPLGPNSCSTSGPNLYLIHGPNLYCYRHVDKLNAAKNLPQPQRVSRLLGCTH | – | > 1e+09 | -167 | 2.9e+06 | -53.6
